Eight substances from patent US20220009989A1 can be followed below.

In experiment [1] the target is Biotinylated PCSK9 (UniProt Q8NBP7). As to the kind of experiment: PCSK9-LDL-R competitive ELISA (biotinylated PCSK9, coated rhLDL-R), Ki from IC50.
Experiment [2] concerns the target PCSK9 (10 ug/mL; in-house production) (UniProt Q8NBP7). As to the kind of experiment: cell-based or functional assay.
Experiment [3] deals with solubilised human IR-A (human) (UniProt P06213). As to the kind of experiment: SPA competition vs [125I-A14Y]-human insulin, solubilised hIR-A, 1.5% HSA, relative to human insulin.
Chain of solubilised human IR-A (human) (P06213 other isoform, or with tags, fused parts or gaps limits assumed): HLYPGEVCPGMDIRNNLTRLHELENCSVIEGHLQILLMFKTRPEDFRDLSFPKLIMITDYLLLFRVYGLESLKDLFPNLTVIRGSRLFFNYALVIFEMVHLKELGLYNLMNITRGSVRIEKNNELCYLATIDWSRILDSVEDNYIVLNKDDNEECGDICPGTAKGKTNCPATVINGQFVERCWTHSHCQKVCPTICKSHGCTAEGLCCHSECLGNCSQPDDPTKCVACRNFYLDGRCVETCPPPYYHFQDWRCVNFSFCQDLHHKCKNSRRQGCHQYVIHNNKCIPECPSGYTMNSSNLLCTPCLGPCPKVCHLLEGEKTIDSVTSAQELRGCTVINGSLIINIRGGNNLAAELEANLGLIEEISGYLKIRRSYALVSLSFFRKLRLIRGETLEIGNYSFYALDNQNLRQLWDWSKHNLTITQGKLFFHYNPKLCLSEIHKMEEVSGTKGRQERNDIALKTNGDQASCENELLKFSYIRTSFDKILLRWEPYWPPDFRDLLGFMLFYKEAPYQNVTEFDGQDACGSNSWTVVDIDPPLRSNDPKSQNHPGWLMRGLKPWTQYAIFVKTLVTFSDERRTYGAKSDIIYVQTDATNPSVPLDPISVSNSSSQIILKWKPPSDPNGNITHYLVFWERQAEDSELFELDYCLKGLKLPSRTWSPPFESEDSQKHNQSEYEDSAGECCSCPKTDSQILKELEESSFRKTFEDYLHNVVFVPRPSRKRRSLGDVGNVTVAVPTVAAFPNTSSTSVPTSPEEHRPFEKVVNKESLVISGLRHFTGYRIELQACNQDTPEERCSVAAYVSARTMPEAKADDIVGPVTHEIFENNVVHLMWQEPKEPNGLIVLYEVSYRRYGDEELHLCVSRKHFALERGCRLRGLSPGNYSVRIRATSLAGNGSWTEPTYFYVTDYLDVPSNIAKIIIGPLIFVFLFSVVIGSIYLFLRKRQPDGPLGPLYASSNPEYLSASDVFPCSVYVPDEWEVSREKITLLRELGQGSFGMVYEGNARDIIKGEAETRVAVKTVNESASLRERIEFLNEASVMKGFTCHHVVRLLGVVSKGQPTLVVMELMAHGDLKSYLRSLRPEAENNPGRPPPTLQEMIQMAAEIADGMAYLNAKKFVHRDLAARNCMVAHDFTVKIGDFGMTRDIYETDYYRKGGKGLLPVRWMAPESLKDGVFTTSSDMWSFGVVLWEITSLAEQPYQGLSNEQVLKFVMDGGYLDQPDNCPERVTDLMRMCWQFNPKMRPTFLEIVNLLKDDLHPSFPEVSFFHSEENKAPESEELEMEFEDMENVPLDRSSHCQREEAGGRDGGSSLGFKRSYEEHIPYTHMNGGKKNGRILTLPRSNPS
The target is the same in experiment [4]. The experiment can be described thus: SPA competition vs [125I-A14Y]-human insulin, solubilised hIR-A, 0% HSA, relative to human insulin.

pKi: −log10 of the molar value.

In turn, “EGF(A)(301L, 309R, 312E, 321E)-[GAQP]6-Insulin(A14E, B29K(eicosanedioyl-gGlu-2×OEG), desB30” gave a pKi in experiment [1] of 8.76.
“EGF(A)(301L, 309R, 312E, 321E)-[GAQP]6-Insulin(A14E, B29K(octadecanedioyl-gGlu-2×OEG), desB30)” had a negative logarithm of the Ki (pKi) in experiment [1] of 8.72.
Still for that read-out and setting: as for “EGF(A)(301L, 309R, 312E, 321E)-[GAQP]6-Insulin(A14E, B29K(octadecanedioyl-gGlu-OEG), desB30)”, the figure is 8.68.
In experiment [2], “EGF(A)(301L, 309R, 312E, 321E)-[GAQP]19-Insulin(A14E, B29K(eicosanedioyl-gGlu-2×OEG), desB30)” showed an LDL uptake EC50 (nM) in HepG2 cells of 126 nM. Besides, the hIR-A binding affinity (% rel to HI) in experiment [3] was 0.14 % rel to HI; in experiment [4], 2.89 % rel to HI.
“EGF(A)(301L, 309R, 312E, 321E)-[GAQP]19-Insulin(A14E, B29K(octadecanedioyl-gGlu-2×OEG), desB30)” gave an LDL uptake EC50 (nM) in HepG2 cells in experiment [2] of 123 nM. The hIR-A binding affinity (% rel to HI) is 0.14 % rel to HI in experiment [3] and 2.99 % rel to HI in experiment [4]. The pKi in experiment [1] is 8.67.
For the substance “EGF(A)(301L, 309R, 312E, 321E)-[GAQP]19-Insulin(B3E, B29K(eicosanedioyl-gGlu-2×OEG), desB30)”, the hIR-A binding affinity (% rel to HI) is 0.29 % rel to HI in experiment [3] and 4.15 % rel to HI in experiment [4]. In experiment [1], the pKi was 8.73.
In the case of “EGF(A)(301L, 309R, 312E, 321E, 328K(hexadecanedioyl-gGlu-2×OEG), 330K(hexadecanedioyl-gGlu-2×OEG)) (peptide; modification not given)”, in experiment [2], the LDL uptake EC50 (nM) in HepG2 cells was determined as 152 nM.
“EGF(A)(301L, 309R, 312E, 321E, 328K(hexadecanedioyl-gGlu-2×OEG), 330K(hexadecanedioyl-gGlu-2×OEG)) (peptide; modification not given; biotinylated (sites not stated))” showed a pKi in experiment [1] of 8.72.
